Reference: patent US20050106141A1, “Hairless protein-interacting partner complexes and methods thereof for the beautification and/or improvement of mammalian skin” (The Procter & Gamble Company, priority 2003, published 2005)

Target: LexA BD-HRt (mouse)
Test: yeast two-hybrid library screen; number of positive clones with this identity

LexA BD-HRt (mouse), sequence (P0A7C2 other isoform, or with tags, fused parts or gaps limits assumed): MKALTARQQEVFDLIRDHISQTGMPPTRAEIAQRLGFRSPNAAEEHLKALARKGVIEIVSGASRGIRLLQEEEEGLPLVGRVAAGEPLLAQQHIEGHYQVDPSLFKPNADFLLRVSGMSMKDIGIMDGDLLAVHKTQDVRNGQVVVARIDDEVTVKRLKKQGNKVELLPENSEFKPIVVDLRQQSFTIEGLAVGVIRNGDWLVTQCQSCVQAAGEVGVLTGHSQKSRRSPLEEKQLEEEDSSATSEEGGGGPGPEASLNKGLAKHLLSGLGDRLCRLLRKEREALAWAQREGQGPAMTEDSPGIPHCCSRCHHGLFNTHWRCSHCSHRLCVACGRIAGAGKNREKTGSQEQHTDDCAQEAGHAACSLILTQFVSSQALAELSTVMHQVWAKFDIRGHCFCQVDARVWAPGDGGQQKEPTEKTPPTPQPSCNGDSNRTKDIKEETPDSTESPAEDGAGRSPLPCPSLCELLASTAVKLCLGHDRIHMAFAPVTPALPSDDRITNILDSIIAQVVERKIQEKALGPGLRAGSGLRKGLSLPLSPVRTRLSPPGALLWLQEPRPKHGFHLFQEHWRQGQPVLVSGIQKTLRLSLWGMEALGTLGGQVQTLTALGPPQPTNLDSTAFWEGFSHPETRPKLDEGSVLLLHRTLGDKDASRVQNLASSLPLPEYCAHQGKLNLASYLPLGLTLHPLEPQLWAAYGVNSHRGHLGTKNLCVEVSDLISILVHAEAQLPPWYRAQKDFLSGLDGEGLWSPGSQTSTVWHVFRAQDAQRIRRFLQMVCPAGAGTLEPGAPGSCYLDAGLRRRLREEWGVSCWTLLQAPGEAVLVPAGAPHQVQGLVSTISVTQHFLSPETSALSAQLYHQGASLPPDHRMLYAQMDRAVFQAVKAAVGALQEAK

Hits: 1
Substance: Homo Sapiens HIC Protein Isoform P32 and Isoform 40 (from UniProt Q9P1T7 1-246)
